The record followed here is the RNAGym collection of RNA variant scans (doi:10.1093/molbev/msab373).

The labels stand for the following.
B1: Azoarcus group I ribozyme (parent)
chain: GUGCCUUGCGCCGGGAAACCACGCAAGGGAUGGUGUCAAAUUCGGCGAAACCUAAGCGCCCGCCCGGGCGUAUGGCAACGCCGAGCCAAGCUUCGGCGCCUGCGCCGAUGAAGGUGUAGAGACUAGACGGCACCCACCUAAGGCAAACGCUAUGGUGAAGGCAUAGUCCAGGGAGUGGCGAAAGUCACACAAACCGG

Variants of B1 are the subject of the data set. Kind of data set: reverse-splicing fitness (ratio to wild type); higher = more active; in vitro selection; Mg2+ level not given. Put shortly: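 An in vitro group I ribozyme library with randomized positions was T7-transcribed and gel-purified. In triplicate, 10 pmol RNA in EPPS pH 7.5 was reacted with 50 pmoles of a 30-nt RNA substrate for 1 h at 37 °C across several added MgCl2 levels (1–48 mM), then stopped with EDTA. Products were reverse transcribed from a substrate-complementary primer, PCR-amplified and sequenced (HiSeq 4000). Fitness is a variant's read proportion after selection over that before, normalised to wild type.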
Regarding A120G A145G C150G C169G U176C, the reverse-splicing fitness worked out at 0.0152.
Consider C82A A111U A120C C150G U176C, for which the reverse-splicing fitness was determined as 0.0098.
Take C82G A120C A145G C150U C169G U176A: the reverse-splicing fitness stood at 0.0139.
On to C82A A111U A120C A145U C150G C169A U176G, for which the reverse-splicing fitness amounted to 0.00766.
In the case of C82A A120G A145C C150U C169U U176C, the reverse-splicing fitness was found to be 0.0106.
For A120G A145G C169A U176G, the reverse-splicing fitness was 0.00693.
As to C82G A120C A145G C150U U176C, the reverse-splicing fitness is 0.0797.
For the variant C82G A111G A120C C169A U176G, the reverse-splicing fitness was determined as 0.00532.
Regarding A120C A145G C169A U176C, the reverse-splicing fitness worked out at 0.024.
For the variant C82G A111G A145G C150U C169U U176G, the reverse-splicing fitness was found to be 0.00678.
In the case of C82U A145G C150U C169G U176C, the reverse-splicing fitness is 0.0172.
With C82A A120U C169A U176G, the reverse-splicing fitness turned out to be 0.00137.
In the case of C82G A111U A120U A145U C169U U176A it was 0.00233.
With C82A A111G A120C A145U C150A U176C, the reverse-splicing fitness was 0.0198.
Consider A111U A145G C150U C169A U176C, for which the reverse-splicing fitness came to 0.017.
As to C82A A111U A145U, the reverse-splicing fitness was determined as 0.289.
Consider C82A A111U A120G A145G C169G U176G, for which the reverse-splicing fitness is 0.00424.
With C82U A111C A145C C150G C169U U176A, the reverse-splicing fitness came to 0.00919.
For C82A A120U A145G C150A C169G U176A, the reverse-splicing fitness came to 0.00661.
Turning to C82U A111G A120U A145C C150U C169A, the reverse-splicing fitness came to 0.00187.
In the case of C82A A111C A120G A145U C169U U176A it was 0.0132; in that of A120C A145C C150G C169G U176G, 0.00352.
Regarding A111U A120G A145C C150A C169A U176C, the reverse-splicing fitness stood at 0.00665.
Take A111U A120G A145C C150A C169A U176A: the reverse-splicing fitness worked out at 0.0144.
In the case of A111U A120G A145C C150A C169A U176G it was 0.004; in that of C82U A120U A145G C169G U176G, 0.00136.
In the case of C82A A111U A120C A145C C150U C169A U176A it was 0.0182; in that of A111G A120C A145G U176A, 0.457.
With A111G A120G A145G C150A C169A U176C, the reverse-splicing fitness came to 0.0283.
As for C82U A111U A120G A145U C150G C169G U176A, the reverse-splicing fitness was 0.00623.
In the case of C82A A111U A120C A145C C169U, the reverse-splicing fitness came out at 0.0112.
In the case of C82U A120U C150A C169A it was 0.00297; in that of C82U A120G A145G C150A C169U, 0.0101.
In the case of C82G A120G A145U C150G U176C it was 0.0103.
With C82G A111G C150G C169U U176A, the reverse-splicing fitness worked out at 0.00973.
With C82A A111C A120U A145G C169A U176A, the reverse-splicing fitness was 0.00438.
C82U A111U A120G A145U C169A U176A: the reverse-splicing fitness came out at 0.0113.
For C82U A111C A120C A145U C150G C169G U176C, the reverse-splicing fitness worked out at 0.0066.
On to A111C A120U A145U C169A U176C, for which the reverse-splicing fitness was 0.00217.
In the case of C82U A111G A120G A145G C150A C169A U176A it was 0.0174; in that of A111U A120G A145G C150A C169G U176A, 0.0198.
Take A111U A120U A145G C150U C169A U176G: the reverse-splicing fitness is 0.00237.
Consider C82U A111G A120C A145C C169A U176A, for which the reverse-splicing fitness was determined as 0.00738.
For the variant A111G A120C A145G C150U, the reverse-splicing fitness is 0.582.
In the case of C82G A120C A145U C150A U176A it was 0.0188; in that of C82U A120C A145U C150G C169G U176A, 0.00652.
In the case of C82A A111U A120U A145U C150A C169G U176G, the reverse-splicing fitness came out at 0.00203.
Take C82G A120U A145G C169G: the reverse-splicing fitness was 0.00688.
In the case of C82G A120C C150U it was 0.108; in that of C82G A120U A145C C150G C169U U176A, 0.00213; in that of C82G A145U C169A U176G, 0.00461.
As for A111G A120G C150U C169U U176C, the reverse-splicing fitness amounted to 0.0607.
As for C82A A111G A145U C150A C169A, the reverse-splicing fitness stood at 0.0101.
With A111U C150U C169G U176A, the reverse-splicing fitness is 0.0177.
As for C82G A120U A145G C150G C169U U176A, the reverse-splicing fitness came out at 0.00829.
Consider C82G A111C A120G C150U U176A, for which the reverse-splicing fitness was determined as 0.0119.
Turning to C82U A111G A120C C169G U176A, the reverse-splicing fitness was found to be 0.0168.
Consider C82A A111U A120G A145G C150A C169A U176G, for which the reverse-splicing fitness was 0.00817.
C82A A111C A120G A145U C150G C169U U176G: the reverse-splicing fitness came out at 0.00542.
For C82A A120U A145U C150G C169G U176A, the reverse-splicing fitness is 0.00253.
In the case of C82U A120G A145U C150G C169A U176A, the reverse-splicing fitness amounted to 0.00927.
C82U C150A C169A U176C: the reverse-splicing fitness amounted to 0.0149.
For the variant C82G A111U A120C A145U C150A U176G, the reverse-splicing fitness was determined as 0.00705.
Consider C82U A111C A120C A145G C150U C169U U176A, for which the reverse-splicing fitness turned out to be 0.0156.
Regarding C82U A111U A145G C150U C169A U176A, the reverse-splicing fitness turned out to be 0.0156.
With C82G A111U A120C A145C C150U C169U U176A, the reverse-splicing fitness came to 0.0127.
In the case of A111G A120G A145G C150G C169U U176A, the reverse-splicing fitness worked out at 0.012.
As for C82A A111G A120G A145U C150A C169G U176G, the reverse-splicing fitness is 0.00478.
Regarding C82G A145C C150U C169U U176A, the reverse-splicing fitness was 0.0142.
In the case of A111G A145U C150U C169G U176A it was 0.0215; in that of C82U A111C A145G U176C, 0.113; in that of C82G A120U A145G C150G C169A U176G, 0.00485.
C82A A111G A120C A145G C150G C169A U176G: the reverse-splicing fitness is 0.00827.
Regarding A111C A120G A145G U176G, the reverse-splicing fitness was found to be 0.00588.
As to C82G A111U A120G, the reverse-splicing fitness came out at 0.0168.
With C82U A111C A145G C169G U176G, the reverse-splicing fitness amounted to 0.00682.
On to A120C A145U C150U C169G U176C, for which the reverse-splicing fitness was 0.0117.
With C82A A120G A145U C169A U176A, the reverse-splicing fitness came out at 0.0104.
In the case of C82A A111G A120G A145C C150G U176C it was 0.0087.
Turning to A111G A120U A145G C150U C169U U176C, the reverse-splicing fitness came to 0.0273.
As to C82G A111G A120U A145U C150U C169G U176A, the reverse-splicing fitness was 0.0031.
C82U A111C A120C A145C C150U U176A: the reverse-splicing fitness came to 0.00836.
On to C82U A120G A145C C150A C169U U176A, for which the reverse-splicing fitness stood at 0.0218.
